From US20240252614A1 (Pfizer, published 2024)

Experiments:
[1] = target: T1, hMPV125 (hMPV B, UniProt Q6WB98 19-102); experiment: BLI, 56C stress
T1 construct: L141C-A161C, G239A, T411C-Q434C
Protocol: (§1) All measurements were conducted at 30° C. temperature in 96-well black plates (Corning, Corning, NY) with a final volume of 240 μL per well at a constant agitation rate of 1000 RPM.
(§2) Conformation integrity of hMPV B F protein mutants were evaluated by a thermal stress experiment. Crude cell culture supernatants were normalized based on the results of the titer quantitation and then incubated for 1 hour at room temperature and two higher temperatures. For the testing of hMPV B single mutants, the two temperatures were 53° C. and 56° C. After the incubation, the protein mutants were probed with prefusion specific monoclonal antibody hMPV-2 by OCTET HTX. Anti-Human IgG Fc Capture (AHC) biosensors were first equilibrated in PB before being dipped into more PB for to establish the initial baseline. Biosensors were incubated with hMPV-2 before being equilibrated in PB to establish the experimental baseline. The mAb-bound biosensors were then dipped into the thermal stresses cell culture supernatants for 5 minutes.

[2] = target: T2, hMPV126 (hMPV B, UniProt Q6WB98 19-102); experiment: BLI, 56C stress
T2 construct: T49I, T150C-R156C, G239A, A459P
Protocol: as §1, §2

[3] = target: T3, hMPV120 (hMPV B, UniProt Q6WB98 19-102); experiment: BLI, 56C stress
T3 construct: A140C-S149C, T411C-Q434C
Protocol: as §1, §2

[4] = target: T4, hMPV129 (hMPV B, UniProt Q6WB98 19-102); experiment: BLI, 56C stress
T4 construct: T49I, A140C-S149C, G239A, T365I, T411C-Q434C, A459P
Protocol: as §1, §2

[5] = target: T5, hMPV132 (hMPV B, UniProt Q6WB98 19-102); experiment: BLI, 56C stress
T5 construct: L141C-A161C, S149T, G239A, T411C-Q434C, A459P
Protocol: as §1, §2

[6] = target: T6, hMPV128 (hMPV B, UniProt Q6WB98 19-102); experiment: BLI, 56C stress
T6 construct: T49I, A140C-S149C, G239A, T411C-Q434C, A459P
Protocol: as §1, §2

[7] = target: T7, hMPV144 (hMPV B, UniProt Q6WB98 19-102); experiment: BLI, 56C stress
T7 construct: T49I, L141C-A161C, S149T, A459P
Protocol: as §1, §2

[8] = target: T8, hMPV121 (hMPV B, UniProt Q6WB98 19-102); experiment: BLI, 56C stress
T8 construct: L141C-A161C, T411C-Q434C
Protocol: as §1, §2

[9] = target: T9, hMPV135 (hMPV B, UniProt Q6WB98 19-102); experiment: BLI, 56C stress
T9 construct: T49I, S149T, A459P
Protocol: as §1, §2

[10] = target: T10, hMPV119 (hMPV B, UniProt Q6WB98 19-102); experiment: BLI, 56C stress
T10 construct: T49I, T150C-R156C, A459P
Protocol: as §1, §2

[11] = target: T11, hMPV123 (hMPV B, UniProt Q6WB98 19-102); experiment: BLI, 56C stress
T11 construct: A140C-S149C, G239A, T411C-Q434C
Protocol: as §1, §2

[12] = target: T12, PIV1059 (PIV1); experiment: BLI, no stress;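 further: binding of thermally stressed PIV1 F mutant supernatant to mAb on AHC biosensors for 5 min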
T12 construct: F113G, F114S, A466L, S473L, A480L, G134A, Q92L
Protocol: (§3) The OCTET HTX (Sartorius, Gottingen, Germany) instrument was used to evaluate the expression and conformational integrity for each mutant. All measurements were conducted at 30° C. temperature in 96-well black plates (Corning, Corning, NY) with a final volume of 240 μL per well at a constant agitation rate of 1000 RPM.
(§4) Conformation integrity of PIV1 F protein mutants were evaluated by a thermal stress experiment. Crude cell culture supernatants were normalized based on the results of the titer quantitation and then incubated for 1 hour at room temperature and two higher temperatures. For the initial testing of PIV1 mutants, the two temperatures were 50° C. and 53° C. […] Anti-Human IgG Fc Capture (AHC) biosensors were first equilibrated in PB for before being dipped into more PB to establish the initial baseline. […] The mAb-bound biosensors were then dipped into the thermal stresses cell culture supernatants for 5 minutes.

[13] = target: T13, PIV1 F literature prefusion comparison (PIV1); experiment: BLI, no stress;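 further: binding of thermally stressed PIV1 F mutant supernatant to mAb on AHC biosensors for 5 min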
T13 construct: F113G, F114S, A466I, S473I (Stewart-Jones et al. 2018)
Protocol: as §3, §4

[14] = target: T14, PIV1056 (PIV1); experiment: BLI, no stress;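 further: binding of thermally stressed PIV1 F mutant supernatant to mAb on AHC biosensors for 5 min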
T14 construct: F113G, F114S, A466L, S473L, A480L, Q92A, G134A
Protocol: as §3, §4

[15] = target: T15, PIV1050 (PIV1); experiment: BLI, no stress;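 further: binding of thermally stressed PIV1 F mutant supernatant to mAb on AHC biosensors for 5 min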
T15 construct: F113G, F114S, Q92C-G134C, A466V, S473V, A480V
Protocol: as §3, §4

[16] = target: T16, PIV1053 (PIV1); experiment: BLI, no stress
T16 construct: F113G, F114S, A466L, S473L, A480L, G134A
Protocol: as §3, §4

[17] = target: T17, PIV1064 (PIV1); experiment: BLI, no stress
T17 construct: F113G, F114S, Q92C-G134C, A466I, S473I, A480L
Protocol: as §3, §4

[18] = target: T18, PIV1055 (PIV1); experiment: BLI, no stress
T18 construct: A466L, S473L, G134A
Protocol: as §3, §4

[19] = target: T19, PIV1060 (PIV1); experiment: BLI, no stress
T19 construct: Q92L, G134A, A466L, S473L, A480L
Protocol: as §3, §4

[20] = target: T20, PIV1058 (PIV1); experiment: BLI, no stress
T20 construct: A466L, S473L, Q92A, G134A
Protocol: as §3, §4

[21] = target: T21, PIV1062 (PIV1); experiment: BLI, no stress
T21 construct: F113G, F114S, A466L, S473L, A480L, Q92A, G134L
Protocol: as §3, §4

[22] = target: T22, PIV1048 (PIV1); experiment: BLI, no stress
T22 construct: Q92C-G134C, A466L, S473L, A480L
Protocol: as §3, §4

[23] = target: T23, PIV1061 (PIV1); experiment: BLI, no stress
T23 construct: Q92L, G134A, A466L, S473L
Protocol: as §3, §4

[24] = target: T24, PIV1065 (PIV1); experiment: BLI, no stress
T24 construct: F113G, F114S, Q92C-G134C, A466I, S473I
Protocol: as §3, §4

[25] = target: T25, PIV1067 (PIV1); experiment: BLI, no stress
T25 construct: F113G, F114S, Q92C-G134C, A466I, S473I, A480I
Protocol: as §3, §4

[26] = target: T26, PIV1047 (PIV1); experiment: BLI, no stress
T26 construct: F113G, F114S, Q92C-G134C, A466L, S473L, A480L
Protocol: as §3, §4

[27] = target: T27, PIV1054 (PIV1); experiment: BLI, no stress
T27 construct: A466L, S473L, A480L, G134A
Protocol: as §3, §4

[28] = target: T28, PIV1068 (PIV1); experiment: BLI, no stress
T28 construct: A466I, S473I, A480I, Q92L, G134A
Protocol: as §3, §4

[29] = target: T29, PIV1049 (PIV1); experiment: BLI, no stress
T29 construct: Q92C-G134C, A466L, S473L
Protocol: as §3, §4

[30] = target: T30, PIV1066 (PIV1); experiment: BLI, no stress
T30 construct: A466I, S473I, A480L, Q92L, G134A
Protocol: as §3, §4

[31] = target: T31, PIV1057 (PIV1); experiment: BLI, no stress
T31 construct: A466L, S473L, A480L, Q92A, G134A
Protocol: as §3, §4

[32] = target: T32, PIV1063 (PIV1); experiment: BLI, no stress
T32 construct: A466L, S473L, A480L, Q92A, G134L
Protocol: as §3, §4

B1: hMPV-2 mAb (antibody, V domains shown)
VH: QVQLQQSGAEVKKPGASVKVSCKASGYTFTSYGISWVRQAPGQGLEWMGWISGYNGNTNYAQTFQGTFTMTTDTSTSTAYMELRRLRSGDTAVYYCARDRYYASGSYNGMDVWGQGTTVTVSS
VL: QSALTQPPSASGAPGQRVTVSCSGSSSNVGSSSVYWYQQLPGTAPKLLIYRNNQRPSGVPDRFSGSKSGTSASLAISGLRSEDEADYYCAAWDDSLSGWVFGGGTKLTVLG
notes: human IgG1
B1 was tested, and the “Response Shift” value [1] was 0.785 nm, the “Response Shift” value [2] was 0.73 nm and the “Response Shift” value [3] was 0.564 nm. For the same binder, the “Response Shift” value [4] was 0.632 nm, the “Response Shift” value [5] was 0.694 nm and the “Response Shift” value [6] was 0.769 nm. For the same binder, the “Response Shift” value [7] was 0.67 nm, the “Response Shift” value [8] was 0.794 nm and the “Response Shift” value [9] was 0.724 nm. For the same binder, the “Response Shift” value [10] was 0.828 nm and the “Response Shift” value [11] was 0.559 nm.

B2: PIV1-8 mAb (antibody, V domains shown)
VH: QVQLVQSGAEVKKPGSSVKVSCEASGGTFSNYVISWVRQAPGQGLEWMGGIIPVFATAKYAQKFQGRVTIIADQSTNTAYLELSSLRSDDTAVYFCASVDSGGTWWDAFAIWGQGTMVTVSS
VL: QAVVTQPRSVSGSPGQAVTISCTGTSSDVGGYNYVSWYQHHPGKAPKLIIYDVTKRPSGVPDRFSGSKSGNTASLTISGLQTEYEADYYCCSYAGSYTLVFGGGTKLTVLG
notes: human IgG1; also called hPIV1-8 mAb; hPIV1-8
B2 was tested, and the “Response Shift” value [12] was 0.841 nm, the “Response Shift” value [13] was 0.709 nm and the “Response Shift” value [14] was 0.739 nm. For the same binder, the “Response Shift” value [15] was 0.848 nm, the “Response Shift” value [16] was 0.857 nm and the “Response Shift” value [17] was 0.912 nm. The “Response Shift” value [18] was 0.757 nm, the “Response Shift” value [19] was 0.584 nm and the “Response Shift” value [20] was 0.688 nm. For the same binder, the “Response Shift” value [21] was 0.619 nm, the “Response Shift” value [22] was 0.737 nm and the “Response Shift” value [23] was 0.619 nm. For the same binder, the “Response Shift” value [24] was 0.809 nm, the “Response Shift” value [25] was 0.849 nm and the “Response Shift” value [26] was 0.79 nm. The “Response Shift” value [27] was 0.764 nm, the “Response Shift” value [28] was 0.628 nm and the “Response Shift” value [29] was 0.636 nm. The “Response Shift” value [30] was 0.642 nm, the “Response Shift” value [31] was 0.718 nm and the “Response Shift” value [32] was -0.116 nm.
